Results on two substances are retold here after PMC6212398, “Competing protein-protein interactions regulate binding of Hsp27 to its client protein tau” (Nature Communications, 2018).

A word on the stoichiometry N: it is a count of units in the complex or per binding partner. As a reminder, the Kd is the concentration at which binding is half-saturated. A lower Kd goes with higher affinity. As usually defined, the IC50 is the concentration needed to halve the response being measured. Lower therefore signals greater potency.

The target of one experiment is Hsp27 ΔNTD GPG (human) (UniProt P04792). Description: not stated; oligomeric state of Hsp27 GPG, ΔNTD and ΔNTD GPG (Supplementary Figure 8B, 8C); method not given.
The target in experiment [1] is Hsp27 alpha-crystallin domain (ACD, residues Q80–S176) (human) (UniProt P04792). Description: ITC; K18 tau with Hsp27 ACD (Supplementary Figure 3B); limited by solubility. In general terms: Isothermal titration calorimetry measures the heat released or taken up as one component is titrated into another.
Sequence of Hsp27 alpha-crystallin domain (ACD, residues Q80–S176) (human) (P04792 80-176): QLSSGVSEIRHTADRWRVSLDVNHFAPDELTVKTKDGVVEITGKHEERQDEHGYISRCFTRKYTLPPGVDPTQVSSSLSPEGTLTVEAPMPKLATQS
The target is the same in experiment [2]. Description: ELISA; competitive ELISA of K18 tau on Hsp27 ACD (Supplementary Figure 3A); format not told.

Turning to “Hsp27 ΔNTD GPG (from UniProt P04792 80-205) (domain or fragment)”, the stoichiometry N with Hsp27 ΔNTD GPG (human) was 2.

On to “K18 tau (the four microtubule-binding repeats) (domain or fragment)”, for which, in experiment [1], the Kd is > 100 µM. Moreover, the IC50 in experiment [2] is > 100 µM.
